From US6645733B1, “Fluorescent intensity method for assaying binding between proteins or peptides” (Ingeneus Corporation, priority 1999, dated 2003)
No end group written: not given here.

Biological target: T1, human AT1 receptor (Homo sapiens, UniProt P30556)
T1 construct: purchased NEN Life Science Products Inc., Boston, Mass; host or cells: Chinese hamster ovary (CHO) cells, purified membrane preparation
T1 sequence (P30556 1-359): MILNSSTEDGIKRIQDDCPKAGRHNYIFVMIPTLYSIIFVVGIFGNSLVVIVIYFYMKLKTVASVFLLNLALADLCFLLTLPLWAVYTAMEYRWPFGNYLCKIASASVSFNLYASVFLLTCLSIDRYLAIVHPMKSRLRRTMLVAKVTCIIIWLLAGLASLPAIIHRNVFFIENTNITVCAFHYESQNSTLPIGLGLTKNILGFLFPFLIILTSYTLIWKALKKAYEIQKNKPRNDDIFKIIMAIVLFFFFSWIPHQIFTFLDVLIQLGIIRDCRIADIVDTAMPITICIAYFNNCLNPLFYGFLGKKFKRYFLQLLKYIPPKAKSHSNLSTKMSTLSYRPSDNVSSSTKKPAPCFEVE
Test: Competition binding experiment: displacement of wildtype Flu-AII from AT1 receptor by unlabeled ligand
Settings: all twelve concentrations 1 nM to 300 μM, 10 nM Flu-AII, 0.02 units AT1 receptor (data not shown)

MLGFFQQPKPR [substance P]
displacement of Flu-AII binding to AT1 receptor: unable to displace
